Laboratory results from patent JP2019218309A (dated 2019).
No end group written: not given here.

Key:
GIP(3−42) (inactive GIP) = molecular target: T1, GIP(3−42) (inactive GIP); assay: sandwich ELISA: anti-total GIP monoclonal antibody as capture, biotinylated m1 at 1 ug/mL as detection
T1 construct: also called 非活性型GIP; 不活性型のGIP(3−42)
T1 peptide: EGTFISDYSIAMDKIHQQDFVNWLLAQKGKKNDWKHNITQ

[1] = molecular target: T2, 測定用抗原(1): PEG化GIP(1−15) (PEGylated N-terminal 15 amino acids of active GIP) (also: PEGylated, site not given here); assay: ELISA, immobilised PEGylated peptide, hybridoma culture supernatant
T2 construct: also called GIP(1-15)
T2 peptide: YAEGTFISDYSIAMD

[2] = molecular target: T3, 測定用抗原(2): PEG化GIP(3−15) (PEGylated N-terminal 13 amino acids of inactive GIP) (also: PEGylated, site not given here); assay: as above
T3 construct: also called GIP(3-15)
T3 peptide: EGTFISDYSIAMD

GIP(1−42) (active GIP) = molecular target: T4, GIP(1−42) (active GIP); assay: sandwich ELISA: anti-total GIP monoclonal antibody as capture, biotinylated m1 at 1 ug/mL as detection, GIP at 8.2-2000 pg/mL
T4 construct: a Human (total) GIP ELISA kit was used; also called 活性型GIP; GIP(1-42)
T4 peptide: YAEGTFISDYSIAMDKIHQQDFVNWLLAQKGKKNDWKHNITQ

B1: ハイブリドーマ9B9H5−B9株から産生されるモノクローナル抗体 (anti-active GIP monoclonal antibody of hybridoma 9B9H5-B9) (antibody, V domains shown)
VH: QVQLQQPGAELVKPGASVKLSCKASGYTFTSFWMHWVIQRPGQGLEWIGEMNPSDGRTHFNEKFKTKATLTIDTSSNTAYMELNSLTSEDSAVYYCARRMEDWGQGTLVTVSA
VL: DIKMTQSPSSMYASLGERVTITCKASQDINSYLGWFQQKPGKSPKTLIYGANRLVDGVPSRFSGSGSGQDYSLTISSLEYDDMGIYYCLQYDEFPLTFGAGTKLELKR
notes: Mouse (BALB/c) hybridoma monoclonal antibody, purified on Protein A; also called 抗活性型GIP抗体; 抗活性型GIPモノクローナル抗体
B1: no binding (GIP(3−42) (inactive GIP)); binds [1]; no binding [2]. B1: binds (GIP(1−42) (active GIP)).
